T1: E6AP AZUL (UniProt Q05086 24-87)
T1 construct: AZUL domain of E6AP/UBE3A; Used unlabeled or 15N-labeled; source: expressed and purified as described previously (Buel et al., 2020)
T1 sequence: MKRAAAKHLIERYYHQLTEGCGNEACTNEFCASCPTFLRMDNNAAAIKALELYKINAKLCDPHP


How the values were obtained:
E6AP AZUL = biological target: T1, E6AP AZUL; experiment: NMR titration; unlabeled UBQLN1 constructs added to 0.05 mM 15N-E6AP AZUL; 1H-15N HSQC; Buffer E (10 mM MOPS pH 6.5, 50 mM NaCl, 5 mM DTT, 10 μM zinc sulfate), 25 °C; conditions: both partners purified
UBQLN2 = biological target: T2, UBQLN2 (UniProt Q9UHD9 1-624); experiment: recruitment to phase-separated droplets (confocal fluorescence microscopy, in vitro); 50 µM UBQLN2 construct with 25 µM AZUL-mEGFP or EGFP in 20 mM NaPO4, 200 mM NaCl, 2.5 µM ZnSO4 (pH 6.8) at 37 °C; conditions: both partners purified
T2 construct: UBQLN2 full-length construct; Phase separates into droplets at 37 °C with 200 mM NaCl; also called UBQLN2 full-length; source: E. coli BL21 (DE3), purified (glutathione sepharose, PreScission cleavage, SEC); not shown: GST, N-terminal, cleaved

binding result (E6AP AZUL)	binding result (UBQLN2)	Binder
binds		QNPEVRFQQQLEQLSAMGFLNREANLQALIATGGDINAAIERLLGSQPS (domain or fragment, UniProt Q9UMX0 541-589, looked up, The construct contains a tyrosine residue in the tag to enable quantitation at A280; source: E. coli BL21 (DE3), purified (glutathione sepharose, PreScission cleavage, SEC); not shown: GST, N-terminal, cleaved) [UBQLN1 UBA (541-589)]
	binds	AZUL-mEGFP (domain or fragment, UniProt Q05086 24-87, looked up, E6AP isoform II residues 24-87 (AZUL); AZUL and mEGFP are separated by a TEV protease cut site; A206K is numbered relative to avGFP (A207K relative to EGFP); also called E6AP isoform II 24-87 with a C-terminal mEGFP; source: E. coli BL21 (DE3), purified (glutathione sepharose, PreScission cleavage, SEC); not shown: GST, N-terminal, cleaved; mEGFP (EGFP with A206K), C-terminal, kept) MKRAAAKHLIERYYHQLTEGCGNEACTNEFCASCPTFLRMDNNAAAIKALELYKINAKLCDPHP

— article doi:10.1101/2022.09.29.510132 (bioRxiv, 2022)
